Literature values, collected in PMC10970614.

How the values were obtained:
[1] = biological target: glycophorin (Homo sapiens) (UniProt P02724)
[2] = biological target: integrin alpha M cytoplasmic domain (Homo sapiens) (UniProt P11215); assay: SPR
[3] = biological target: integrin alpha X cytoplasmic domain (Homo sapiens) (UniProt P20702); assay: SPR
[4] = biological target: integrin beta 2 cytoplasmic domain (Homo sapiens) (UniProt P05107); assay: SPR
[5] = biological target: integrin alpha L cytoplasmic domain (Homo sapiens) (UniProt P20701); assay: SPR
integrin alpha L cytoplasmic domain (Homo sapiens), sequence (P20701 1112-1170): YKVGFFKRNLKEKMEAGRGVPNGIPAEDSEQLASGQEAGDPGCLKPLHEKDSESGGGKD

[6] = biological target: integrin beta 3 cytoplasmic domain (Homo sapiens) (UniProt P05106); assay: SPR
integrin beta 3 cytoplasmic domain (Homo sapiens), sequence (P05106 742-788): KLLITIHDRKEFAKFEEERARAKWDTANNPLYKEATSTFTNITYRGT

LtxA, sequence (P16462 whole entry): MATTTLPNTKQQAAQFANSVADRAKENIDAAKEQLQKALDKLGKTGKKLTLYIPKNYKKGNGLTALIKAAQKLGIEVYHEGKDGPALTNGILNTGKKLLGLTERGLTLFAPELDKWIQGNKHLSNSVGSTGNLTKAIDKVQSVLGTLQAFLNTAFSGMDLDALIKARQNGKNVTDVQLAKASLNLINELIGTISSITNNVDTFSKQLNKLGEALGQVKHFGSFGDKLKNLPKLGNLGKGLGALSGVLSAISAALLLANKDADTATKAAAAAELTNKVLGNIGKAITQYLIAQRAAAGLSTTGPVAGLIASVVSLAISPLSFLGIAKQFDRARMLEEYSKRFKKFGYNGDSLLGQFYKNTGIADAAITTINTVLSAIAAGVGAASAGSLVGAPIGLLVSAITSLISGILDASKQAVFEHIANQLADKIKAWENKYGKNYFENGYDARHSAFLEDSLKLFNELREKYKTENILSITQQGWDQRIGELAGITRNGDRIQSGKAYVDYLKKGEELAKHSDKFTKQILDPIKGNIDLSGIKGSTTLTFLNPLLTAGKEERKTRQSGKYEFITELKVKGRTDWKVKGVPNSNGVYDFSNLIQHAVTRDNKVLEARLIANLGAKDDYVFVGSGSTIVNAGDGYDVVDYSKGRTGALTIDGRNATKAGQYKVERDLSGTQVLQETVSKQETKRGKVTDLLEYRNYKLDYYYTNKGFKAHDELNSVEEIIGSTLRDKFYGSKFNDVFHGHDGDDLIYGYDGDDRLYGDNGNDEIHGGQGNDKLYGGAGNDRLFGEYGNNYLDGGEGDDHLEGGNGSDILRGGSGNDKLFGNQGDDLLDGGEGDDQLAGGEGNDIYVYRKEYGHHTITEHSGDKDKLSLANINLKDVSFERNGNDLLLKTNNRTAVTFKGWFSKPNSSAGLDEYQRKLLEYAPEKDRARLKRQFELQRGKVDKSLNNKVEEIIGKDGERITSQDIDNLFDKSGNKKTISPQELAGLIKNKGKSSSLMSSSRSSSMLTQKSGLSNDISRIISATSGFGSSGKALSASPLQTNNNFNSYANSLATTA
integrin alpha M cytoplasmic domain (Homo sapiens), sequence (P11215 1129-1152): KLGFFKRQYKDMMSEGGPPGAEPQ
integrin alpha X cytoplasmic domain (Homo sapiens), sequence (P20702 1129-1163): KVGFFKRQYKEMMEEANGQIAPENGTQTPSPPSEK
integrin beta 2 cytoplasmic domain (Homo sapiens), sequence (P05107 724-769): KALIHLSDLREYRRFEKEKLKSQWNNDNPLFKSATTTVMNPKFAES
HlyA, sequence (P08715 whole entry): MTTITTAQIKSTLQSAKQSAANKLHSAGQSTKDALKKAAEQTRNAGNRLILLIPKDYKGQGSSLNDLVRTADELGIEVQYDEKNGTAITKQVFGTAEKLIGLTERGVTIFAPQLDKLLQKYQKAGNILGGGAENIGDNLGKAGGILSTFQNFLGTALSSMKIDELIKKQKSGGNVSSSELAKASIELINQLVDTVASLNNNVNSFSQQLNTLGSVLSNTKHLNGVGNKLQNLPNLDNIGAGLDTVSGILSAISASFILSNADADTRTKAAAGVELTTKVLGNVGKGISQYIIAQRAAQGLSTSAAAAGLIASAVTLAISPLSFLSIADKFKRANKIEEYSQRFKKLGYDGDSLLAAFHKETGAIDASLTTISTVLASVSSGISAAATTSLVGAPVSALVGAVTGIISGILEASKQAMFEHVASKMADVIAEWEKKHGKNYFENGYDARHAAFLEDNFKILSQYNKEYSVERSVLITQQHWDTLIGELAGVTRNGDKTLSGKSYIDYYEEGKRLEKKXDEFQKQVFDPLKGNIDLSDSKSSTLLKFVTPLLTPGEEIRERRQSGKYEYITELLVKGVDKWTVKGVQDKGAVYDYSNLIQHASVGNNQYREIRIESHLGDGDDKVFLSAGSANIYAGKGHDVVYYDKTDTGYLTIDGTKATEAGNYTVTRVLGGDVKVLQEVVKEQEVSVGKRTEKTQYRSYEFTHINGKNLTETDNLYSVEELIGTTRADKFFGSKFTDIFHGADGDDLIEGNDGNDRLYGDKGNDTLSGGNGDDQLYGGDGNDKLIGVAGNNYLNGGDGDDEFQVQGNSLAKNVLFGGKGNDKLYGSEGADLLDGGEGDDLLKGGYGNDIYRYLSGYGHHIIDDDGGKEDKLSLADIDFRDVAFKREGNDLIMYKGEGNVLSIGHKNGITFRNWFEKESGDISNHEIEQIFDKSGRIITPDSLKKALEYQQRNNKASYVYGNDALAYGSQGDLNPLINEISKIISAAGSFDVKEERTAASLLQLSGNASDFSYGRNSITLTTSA

In the case of HlyA (from UniProt P08715), the Kd [1] is given as 610 nM.
For LtxA (from UniProt P16462), the Kd [2] is listed as 400 nM, the Kd [3] is listed as 180 nM and the Kd [4] is listed as 4.2 nM. The Kd [5] was 15 nM and the Kd [6] was 230 nM.
